Values quoted from earlier work, collected in paper PMC5257249.
Where two headings read alike, the source gives them in different places.

Experiments:
[1] = target: MMOH (Methylococcus capsulatus) (UniProt P22869); assay: fluorescence anisotropy
[2] = target: MMOH (Methylococcus capsulatus) (UniProt P22869); assay: fluorescence anisotropy; remark: listed apart in the source

Sequence of UniProt P22869 (P22869 whole entry, chain 1 of 3): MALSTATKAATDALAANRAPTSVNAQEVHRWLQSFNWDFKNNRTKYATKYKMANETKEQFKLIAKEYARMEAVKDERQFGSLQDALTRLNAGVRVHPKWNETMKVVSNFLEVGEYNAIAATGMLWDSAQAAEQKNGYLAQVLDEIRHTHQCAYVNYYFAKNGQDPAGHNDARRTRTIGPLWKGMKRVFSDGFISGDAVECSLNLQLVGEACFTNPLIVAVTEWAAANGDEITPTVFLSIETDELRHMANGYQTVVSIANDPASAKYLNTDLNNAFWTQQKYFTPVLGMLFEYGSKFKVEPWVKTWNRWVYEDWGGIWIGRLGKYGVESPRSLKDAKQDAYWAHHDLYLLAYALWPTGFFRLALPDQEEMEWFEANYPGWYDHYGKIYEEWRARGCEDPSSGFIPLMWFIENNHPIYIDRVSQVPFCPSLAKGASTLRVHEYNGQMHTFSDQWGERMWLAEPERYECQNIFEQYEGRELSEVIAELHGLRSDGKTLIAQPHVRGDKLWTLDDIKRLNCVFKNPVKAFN
Sequence of UniProt P22869 (P18798 2-389, chain 2 of 3, further chain): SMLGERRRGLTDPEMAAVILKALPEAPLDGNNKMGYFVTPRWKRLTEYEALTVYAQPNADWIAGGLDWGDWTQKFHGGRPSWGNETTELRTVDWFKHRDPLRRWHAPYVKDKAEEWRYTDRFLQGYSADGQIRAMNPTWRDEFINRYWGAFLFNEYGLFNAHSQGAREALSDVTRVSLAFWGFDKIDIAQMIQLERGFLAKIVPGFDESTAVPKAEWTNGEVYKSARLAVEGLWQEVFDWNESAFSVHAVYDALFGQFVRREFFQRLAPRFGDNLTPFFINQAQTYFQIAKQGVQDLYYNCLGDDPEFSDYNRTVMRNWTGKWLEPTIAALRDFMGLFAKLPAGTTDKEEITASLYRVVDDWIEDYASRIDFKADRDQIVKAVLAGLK
Sequence of UniProt P22869 (P11987 2-170, chain 3 of 3, further chain): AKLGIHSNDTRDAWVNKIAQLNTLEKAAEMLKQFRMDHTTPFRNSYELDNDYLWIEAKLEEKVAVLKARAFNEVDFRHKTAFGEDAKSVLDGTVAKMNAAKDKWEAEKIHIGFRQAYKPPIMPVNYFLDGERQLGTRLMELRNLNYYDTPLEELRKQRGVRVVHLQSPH

Kd [1]: 550 nM
Kd [2]: 170 nM
Substance: MMOB (from UniProt P18797)
